From patent publication US20260337282 (published 2026)
Positions count from the first letter of the chain named. In names and notes the source's numbering stands.

T1: human CX3CR1 (human)
T1 chain: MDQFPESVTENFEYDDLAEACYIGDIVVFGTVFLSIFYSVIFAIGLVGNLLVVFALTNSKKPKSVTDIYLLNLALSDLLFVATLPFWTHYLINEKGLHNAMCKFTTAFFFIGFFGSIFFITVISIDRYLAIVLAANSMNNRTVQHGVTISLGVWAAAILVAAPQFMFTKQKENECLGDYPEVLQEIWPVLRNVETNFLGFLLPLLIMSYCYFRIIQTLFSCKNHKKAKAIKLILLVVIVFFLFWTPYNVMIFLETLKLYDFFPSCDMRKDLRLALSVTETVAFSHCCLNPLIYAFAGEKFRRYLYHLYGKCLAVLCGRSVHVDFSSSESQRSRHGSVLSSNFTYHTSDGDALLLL

T2: human CCR4 (human)
T2 chain: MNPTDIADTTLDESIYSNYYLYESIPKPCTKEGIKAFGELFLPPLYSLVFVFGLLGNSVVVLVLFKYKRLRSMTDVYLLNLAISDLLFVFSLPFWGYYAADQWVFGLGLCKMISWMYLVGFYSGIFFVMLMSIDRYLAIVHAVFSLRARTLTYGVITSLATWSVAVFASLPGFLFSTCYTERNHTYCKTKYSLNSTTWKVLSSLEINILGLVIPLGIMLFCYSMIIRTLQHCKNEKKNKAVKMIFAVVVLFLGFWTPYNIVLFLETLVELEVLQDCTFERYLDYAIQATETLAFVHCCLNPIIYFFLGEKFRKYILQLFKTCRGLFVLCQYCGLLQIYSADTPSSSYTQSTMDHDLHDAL

T3: human CCR2 (human)
T3 chain: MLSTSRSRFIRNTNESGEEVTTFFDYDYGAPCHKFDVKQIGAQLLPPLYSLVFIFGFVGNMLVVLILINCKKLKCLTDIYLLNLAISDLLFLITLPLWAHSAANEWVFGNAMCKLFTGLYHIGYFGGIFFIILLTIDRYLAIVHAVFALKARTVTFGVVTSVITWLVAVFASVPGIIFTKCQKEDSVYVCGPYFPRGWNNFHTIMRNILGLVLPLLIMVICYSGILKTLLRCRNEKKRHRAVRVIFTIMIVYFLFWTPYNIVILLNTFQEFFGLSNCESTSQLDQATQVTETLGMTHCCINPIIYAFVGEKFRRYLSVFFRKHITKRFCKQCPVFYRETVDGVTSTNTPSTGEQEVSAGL

T4: mouse CCR8 (mouse)
T4 chain: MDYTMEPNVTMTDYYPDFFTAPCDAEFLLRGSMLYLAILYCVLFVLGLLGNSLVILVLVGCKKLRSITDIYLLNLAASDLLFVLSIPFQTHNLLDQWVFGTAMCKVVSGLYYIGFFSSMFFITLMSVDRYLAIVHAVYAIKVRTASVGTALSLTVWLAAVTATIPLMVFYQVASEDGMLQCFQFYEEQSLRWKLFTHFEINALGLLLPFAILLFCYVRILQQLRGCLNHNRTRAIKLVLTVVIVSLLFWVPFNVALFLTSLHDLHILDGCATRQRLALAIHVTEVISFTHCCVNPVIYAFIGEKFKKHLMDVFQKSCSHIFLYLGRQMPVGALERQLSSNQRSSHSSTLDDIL

T5: cynomolgus CCR8 (cynomolgus)
T5 chain: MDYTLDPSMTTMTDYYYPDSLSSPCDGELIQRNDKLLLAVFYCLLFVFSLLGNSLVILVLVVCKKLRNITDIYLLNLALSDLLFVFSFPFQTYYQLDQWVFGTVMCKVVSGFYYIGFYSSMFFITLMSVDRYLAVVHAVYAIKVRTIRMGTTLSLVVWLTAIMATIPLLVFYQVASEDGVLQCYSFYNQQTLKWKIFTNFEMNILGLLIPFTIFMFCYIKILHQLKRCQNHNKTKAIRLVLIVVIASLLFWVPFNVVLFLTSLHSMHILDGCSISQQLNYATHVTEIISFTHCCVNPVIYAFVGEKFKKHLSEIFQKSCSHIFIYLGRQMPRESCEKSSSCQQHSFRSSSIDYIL

B1: 11F8 (antibody, V domains shown)
VH: QVQLVESGGGVVQPGRSLRLSCAASGFTFSTYVMHWVRQAPGKGLEWVAVISYDGNNKYYADSVKGRFIISRDNSKNTLFLQMNSLRGEDTAVYYCARGRSYVNYYGLDVWGQGTTVTVSS
VL: DIVMTQTPLSLSVTPGQPASISCKSSQSLLYSDGKTYLYWYLQKPGQPPHLLIYEVSNRFSGVPKRFSGSGSGTDFTLKISRVEAEDVGVYYCMQSVKIPLTFGGGTKVEIK
B2: 11B12 (antibody, V domains shown)
VH: QVQLVESGGGVVQPGRSLRLSCAASGFSFSSYVMHWVRQAPGKGLEWVAVISYDGSDKYYADSVKGRFTISRDNSKNTLFLQMNSLRPEDTAVYYCARGRGYRYGQSYYYGMDVWGQGTTVTVSS
VL: B1 VL with H50Q, L51I, Y54F, K65D, V97I, I99L
B3: 11F5 (antibody, V domains shown)
VH: EVQLVESGGGVVQPGRSLRLSCAASGFTFSSYVVHWVRQAPGKGLEWVAVISYDGDNKFYADSVKGRFTISRDNSKNTLYLQMNSLRTEDTAVYYCARGRNYYYYYGLDVWGQGTTVTVSS
VL: B1 VL with P45A, H50Q, K65D, Y91F, V97L, I99V, L101P, G105Q, E110D
B4: Mogamulizumab analog-SI (antibody, V domains shown)
VH: EVQLVESGGDLVQPGRSLRLSCAASGFIFSNYGMSWVRQAPGKGLEWVATISSASTYSYYPDSVKGRFTISRDNAKNSLYLQMNSLRVEDTALYYCGRHSDGNFAFGYWGQGTLVTVSS
VL: DVLMTQSPLSLPVTPGEPASISCRSSRNIVHINGDTYLEWYLQKPGQSPQLLIYKVSNRFSGVPDRFSGSGSGTDFTLKISRVEAEDVGVYYCFQGSLLPWTFGQGTKVEIK
B5: Leronlimab analog (antibody, V domains shown)
VH: EVQLVESGGGLVKPGGSLRLSCAASGYTFSNYWIGWVRQAPGKGLEWIGDIYPGGNYIRNNEKFKDKTTLSADTSKNTAYLQMNSLKTEDTAVYYCGSSFGSNYVFAWFTYWGQGTLVTVSS
VL: DIVMTQSPLSLPVTPGEPASISCRSSQRLLSSYGHTYLHWYLQKPGQSPQLLIYEVSNRFSGVPDRFSGSGSGTDFTLKISRVEAEDVGVYYCSQSTHVPLTFGQGTKVEIK
B6: Plozalizuzumab analog (antibody, V domains shown)
VH: EVQLVESGGGLVKPGGSLRLSCAASGFTFSAYAMNWVRQAPGKGLEWVGRIRTKNNNYATYYADSVKDRFTISRDDSKNTLYLQMNSLKTEDTAVYYCTTFYGNGVWGQGTLVTVSS
VL: DVVMTQSPLSLPVTLGQPASISCKSSQSLLDSDGKTFLNWFQQRPGQSPRRLIYLVSKLDSGVPDRFSGSGSGTDFTLKISRVEAEDVGVYYCWQGTHFPYTFGQGTRLEIK
B7: 11B12-SG-11F8 (antibody, V domains shown)
VH: B2 VH with D54S
VL: B1 VL
B8: 11F5-SG-11F5-SG (antibody, V domains shown)
VH: B3 VH with D54S
VL: B1 VL with D33S, P45A, H50Q, K65D, Y91F, V97L, I99V, L101P, G105Q, E110D
B9: 11F5-N3S-Y6N-11F5 (antibody, V domains shown)
VH: B3 VH with N101S, Y104N
VL: B1 VL with P45A, H50Q, K65D, Y91F, V97L, I99V, L101P, G105Q, E110D
B10: 11F5-N3S-Y5V-Y6N-11F5 (antibody, V domains shown)
VH: B3 VH with N101S, Y103V, Y104N
VL: B1 VL with P45A, H50Q, K65D, Y91F, V97L, I99V, L101P, G105Q, E110D
B11: 11F5-Y5V-11F5 (antibody, V domains shown)
VH: B3 VH with Y103V
VL: B1 VL with P45A, H50Q, K65D, Y91F, V97L, I99V, L101P, G105Q, E110D
B12: 11F5-Y5V-Y6N-11F5 (antibody, V domains shown)
VH: B3 VH with Y103V, Y104N
VL: B1 VL with P45A, H50Q, K65D, Y91F, V97L, I99V, L101P, G105Q, E110D
B13: 11F5-N3S-Y5V-11F5 (antibody, V domains shown)
VH: B3 VH with N101S, Y103V
VL: B1 VL with P45A, H50Q, K65D, Y91F, V97L, I99V, L101P, G105Q, E110D
B14: 11F5-N3S-11F5 (antibody, V domains shown)
VH: B3 VH with N101S
VL: B1 VL with P45A, H50Q, K65D, Y91F, V97L, I99V, L101P, G105Q, E110D
B15: 11F5-Y6N-11F5 (antibody, V domains shown)
VH: B3 VH with Y104N
VL: B1 VL with P45A, H50Q, K65D, Y91F, V97L, I99V, L101P, G105Q, E110D

Target: human CCR8 (human)
Assay: FACS

Chain of human CCR8 (human) (chain, as listed by the source): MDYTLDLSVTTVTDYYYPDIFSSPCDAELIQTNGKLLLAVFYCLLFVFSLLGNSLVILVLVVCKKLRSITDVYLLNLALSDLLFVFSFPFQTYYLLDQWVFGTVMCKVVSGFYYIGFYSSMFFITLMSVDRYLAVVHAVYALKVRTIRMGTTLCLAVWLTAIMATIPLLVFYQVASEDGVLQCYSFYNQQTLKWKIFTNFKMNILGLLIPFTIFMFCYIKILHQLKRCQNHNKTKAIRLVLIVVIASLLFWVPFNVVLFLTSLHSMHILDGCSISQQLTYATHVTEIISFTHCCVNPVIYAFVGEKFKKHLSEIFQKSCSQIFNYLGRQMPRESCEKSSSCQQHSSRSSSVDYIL

EC50 | Binder
0.0814 µg/mL | B1
0.21 µg/mL | B2
0.285 µg/mL | B3

Target: T1, human CX3CR1
Assay: FACS

binding result | Binder
no binding | B4
no binding | B5
no binding | B1
no binding | B2
no binding | B3
no binding | B6

Target: T2, human CCR4
Assay: FACS

binding result | Binder
no binding | B5
no binding | B1
no binding | B2
no binding | B3
no binding | B6

Target: human CCR8 (human)
Assay: FACS
Remark: another data set of the same source

EC50 | Binder
0.104 µg/mL | B1
0.194 µg/mL | B2
0.287 µg/mL | B3

Target: T3, human CCR2
Assay: FACS

binding result | Binder
no binding | B4
no binding | B5
no binding | B1
no binding | B2
no binding | B3

Target: T4, mouse CCR8
Assay: FACS

EC50 | Binder
0.127 µg/mL | B1
0.055 µg/mL | B7
0.177 µg/mL | B2
0.4 µg/mL | B3
0.069 µg/mL | B8

Target: T4, mouse CCR8
Assay: FACS
Remark: another data set of the same source

EC50 | Binder
0.127 µg/mL | B1
0.177 µg/mL | B2
0.4 µg/mL | B3

Target: human CCR8 (human)
Assay: FACS
Remark: another data set of the same source

EC50 | Binder
0.104 µg/mL | B1
0.051 µg/mL | B7
0.194 µg/mL | B2
0.287 µg/mL | B3
0.033 µg/mL | B8

Target: T4, mouse CCR8
Assay: FACS
Remark: another data set of the same source

EC50 | Binder
0.105 µg/mL | B9
0.141 µg/mL | B10
0.762 µg/mL | B11
0.546 µg/mL | B12
0.129 µg/mL | B13
0.168 µg/mL | B3
0.119 µg/mL | B14
0.198 µg/mL | B15

Target: human CCR5 (human)
Assay: FACS

Chain of human CCR5 (human) (O14692 whole entry): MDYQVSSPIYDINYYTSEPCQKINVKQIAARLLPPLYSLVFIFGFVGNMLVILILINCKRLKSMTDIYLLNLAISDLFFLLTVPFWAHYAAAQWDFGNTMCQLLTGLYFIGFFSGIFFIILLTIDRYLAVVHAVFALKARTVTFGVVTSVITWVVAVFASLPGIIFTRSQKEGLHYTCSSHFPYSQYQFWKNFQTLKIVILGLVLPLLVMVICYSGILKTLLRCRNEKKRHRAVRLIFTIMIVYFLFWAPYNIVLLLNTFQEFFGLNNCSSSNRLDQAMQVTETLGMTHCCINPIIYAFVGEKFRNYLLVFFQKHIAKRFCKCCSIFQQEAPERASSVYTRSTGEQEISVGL

binding result | Binder
no binding | B4
no binding | B1
no binding | B2
no binding | B3
no binding | B6

Target: human CCR8 (human)
Assay: FACS
Remark: another data set of the same source

binding result | Binder
no binding | B4
no binding | B5
no binding | B6

Target: T5, cynomolgus CCR8
Assay: FACS

EC50 | Binder
0.71 µg/mL | B1
0.103 µg/mL | B2
> 2 µg/mL | B3

Target: human CCR8 (human)
Assay: FACS
Remark: another data set of the same source

EC50 | Binder
0.174 µg/mL | B9
0.21 µg/mL | B10
0.714 µg/mL | B11
0.592 µg/mL | B12
0.228 µg/mL | B13
0.207 µg/mL | B3
0.168 µg/mL | B14
0.254 µg/mL | B15
